In article PMC11840787, “Detection of an Intermediate in the Unfolding Process of the N-Terminal Domain of TDP-43” (ACS Omega, 2025):

B1: TDP-43 NTD (N-terminal domain of TAR DNA-binding protein 43), noncleaved, 99 residues (domain or fragment, UniProt Q13148 1-77, looked up)
chain: MSEYIRVTEDENDEPIEIPSEDDGTVLLSTVTAQFPGACGLRYRNPVSQCMRGVRLVEGILHAPDAGWGNLVYVVNY
notes: 99 residues in all with the 22-residue N-terminal tag, 11,081.29 Da; A cleaved 78-residue variant was used only for fluorescence kinetics, not for any test of the oligomeric state; also called noncleaved TDP-43 NTD; source: purified

Experiments:
[1] = molecular target: TDP-43 NTD (Homo sapiens) (UniProt Q13148); settings: cited from earlier work
[2] = molecular target: TDP-43 (oligomer, isodesmic) NTD (Homo sapiens) (UniProt Q13148); settings: cited from earlier work
[3] = molecular target: the molecule itself; assay: dynamic light scattering; 0.5 mg/mL (45 uM) protein in 4.5 M urea, DH recorded every 5 s, linear fit extrapolated to 0 s (unfolding intermediate)

| Molecule | Kd [1] [µM] | Kd [2] [µM] | stoichiometry N [3] |
| --- | --- | --- | --- |
| TDP-43 NTD (from UniProt Q13148) | 2.4 | 40 |  |
| B1 |  |  | 2 |
